The values that follow come from patent US20090022738A1 (MICROMET, published 2009).

The target of assay [1] is T1, Epithelial cell adhesion molecule (EpCAM) (human, UniProt P16422 24-314).
T1 construct: whole, on cells; also called 17-1A antigen; KSA
T1 sequence (looked up): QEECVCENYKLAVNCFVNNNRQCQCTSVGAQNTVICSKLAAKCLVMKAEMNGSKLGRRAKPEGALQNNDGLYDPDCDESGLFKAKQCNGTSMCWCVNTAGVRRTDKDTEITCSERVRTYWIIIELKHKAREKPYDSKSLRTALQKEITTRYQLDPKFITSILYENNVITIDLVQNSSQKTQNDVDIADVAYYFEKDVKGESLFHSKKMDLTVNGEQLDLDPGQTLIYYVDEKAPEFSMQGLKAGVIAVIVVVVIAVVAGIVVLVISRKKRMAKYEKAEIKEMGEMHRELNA
As to the kind of experiment: FACS, culture supernatant on Kato cells (for EpCAM binding); anti-His detection. As for the experimental part:
(§1) 250000 Jurkat cells (for CD3 binding) and Kato cells (for EpCAM binding) were independently incubated with cell culture supernatants (50 μl) containing the bispecific construct (pEF-DHFR-3-1×anti-CD3 (VH5/VL2) (Nr.50, SEQ ID NO.: 48) and pEF-DHFR-5-10×anti-CD3 (VH5/VL2) (Nr.54) (SEQ ID NO.:62), respectively) for 45 min. at 4° C. Thereafter, the cells were washed twice in FACS buffer (phosphate-buffered saline containing 1% fetal calf serum (FCS) and 0.05% sodium azide) and incubated with mouse anti-His antibody (Dianova, DIA910) for 60 min. at 4° C. Washing steps were performed as above.
(§2) The cells were finally incubated either with goat anti-mouse Ig-FITC-conjugated antibody (BD 550003) or with anti-mouse IgG conjugated with PE (Sigma, P8547). After washing steps, 10000 events were analysed using FACS Calibur (B&D).
(In general: In flow cytometry, cells or beads pass a laser one at a time.)

For another assay, the target named is T2, human CD3 (human, UniProt P07766 23-207; P04234 22-171; P09693 23-182).
T2 construct: whole, on cells; also called CD3 antigen; human CD3 complex
The assay can be described thus: FACS, culture supernatant on Jurkat cells; anti-His detection. The protocol:
as §1, §2

B1: 5-10×anti-CD3 (VH5/VL2) (SEQ ID NO.:63) (bispecific antibody)
chain: ELVMTQSPSSLTVTAGEKVTMSCKSSQSLLNSGNQKNYLTWYQQKPGQPPKLLIYWASTRESGVPDRFTGSGSGTDFTLTISSVQAEDLAVYYCQNDYSYPLTFGAGTKLEIKGGGGSGGGGSGGGGSEVQLLEQSGAELVRPGTSVKISCKASGYAFTNYWLGWVKQRPGHGLEWIGDIFPGSGNIHYNEKFKGKATLTADKSSSTAYMQLSSLTFEDSAVYFCARLRNWDEPMDYWGQGTTVTVSSGGGGSDVQLVQSGAEVKKPGASVKVSCKASGYTFTRYTMHWVRQAPGQGLEWIGYINPSRGYTNYADSVKGRFTITTDKSTSTAYMELSSLRSEDTATYYCARYYDDHYCLDYWGQGTTVTVSSGEGTSTGSGGSGGSGGADDIVLTQSPATLSLSPGERATLSCRASQSVSYMNWYQQKPGKAPKRWIYDTSKVASGVPARFSGSGSGTDYSLTINSLEAEDAATYYCQQWSSNPLTFGGGTKVEIK
notes: Bispecific single chain with anti-EpCAM at the N-terminus; tested as CHO culture supernatant; detected by anti-His; also called pEF-DHFR-5-10×anti-CD3 (VH5/VL2); Nr.54
Turning to B1, the binding result (in assay [1]; with human CD3) was “binds” throughout.
